In US20060121056A1:

Target: SNAP-25 (rat) (UniProt P60881)

## WGA-LHN/A conjugate (enzyme)
  IC50, inhibition of glycine release from eSC neurons (3 days) (microgrammes/ml): 0.06
  IC50, inhibition of substance P release from eDRG neurons (3 days) (microgrammes/ml): 0.34
